Laboratory results as given in publication PMC12486381 (Molecular Biology and Evolution, 2025).
“And” between values parts separate entries of the source, which are not always exact repeats. Identical values can stand only once. Like-named read-outs stand apart in the source and are kept apart here.

Key:
[1] = target: DfrB homolog A0A0N7CEH1; assay: SEC
[2] = target: DfrB homolog A0A5E7Z8W7; assay: SEC
[3] = target: DfrB homolog UPI001402A2DF; assay: SEC
[4] = target: DfrB homolog A0A345GTK3; assay: SEC
[5] = system: A0A0N7CEH1; assay: initial rate of NADPH and DHF depletion at […] nm, Michaelis-Menten fit; type: biochemical, Skermania phage SPI1; conditions: 50 mM potassium phosphate pH 7, 27 °C
[6] = system: UPI001402A2DF; assay: as above; type: biochemical; conditions: 50 mM potassium phosphate pH 7, 27 °C
[7] = system: A0A839U7A6; assay: as above; type: biochemical, Phyllobacterium trifolii; conditions: 50 mM potassium phosphate pH 7, 27 °C
[8] = system: BBD029md-00326_13692; assay: as above; type: biochemical; conditions: 50 mM potassium phosphate pH 7, 27 °C
[9] = system: A0A5E7Z8W7; assay: as above; type: biochemical, Hoeflea sp. EC-HK425; conditions: 50 mM potassium phosphate pH 7, 27 °C
[10] = target: DfrB homolog A0A6J5PTB3; assay: SEC
[11] = system: DfrB-TS (BBD027md-00173_03685); assay: initial rate of NADPH and DHF depletion at […] nm, Michaelis-Menten fit; type: biochemical; conditions: read-out: K M ^DHF; DfrB domain; 50 µM NADPH, 50 mM potassium phosphate pH 7, 27 °C
[12] = target: DfrB homolog A0A1M7UVF4; assay: SEC
[13] = target: DfrB homolog A0A1R3X8F5; assay: SEC
[14] = target: DfrB1 (type B dihydrofolate reductase 1); assay: SEC
[15] = target: DfrB-TS (BBD027md-00173_03685); assay: SEC
[16] = target: DfrB homolog A0A839U7A6; assay: SEC
[17] = target: DfrB homolog BBD029md-00326_13692; assay: SEC
[18] = target: DfrB homolog E2SFM2; assay: SEC
[19] = read-out: K M ^NADPH, 50 µM DHF
[20] = read-out: K M ^DHF, 50 µM NADPH

DfrB1 (type B dihydrofolate reductase 1), sequence (P00383 whole entry): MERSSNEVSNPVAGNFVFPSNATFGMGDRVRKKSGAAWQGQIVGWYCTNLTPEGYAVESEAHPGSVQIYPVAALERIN

DfrB homolog A0A0N7CEH1 (enzyme)
stoichiometry N [1]: 4

DfrB homolog A0A5E7Z8W7 (enzyme)
stoichiometry N [2]: 4

DfrB homolog UPI001402A2DF (enzyme)
stoichiometry N [3]: 4

DfrB homolog A0A345GTK3 (natural protein)
stoichiometry N [4]: 2

NC(=O)C1=CN([C@@H]2O[C@H](COP(=O)(O)OP(=O)(O)OC[C@H]3O[C@@H](n4cnc5c(N)ncnc54)[C@H](OP(=O)(O)O)[C@@H]3O)[C@@H](O)[C@H]2O)C=CC1 [NADPH]
Km [5, 19]: 5.7 ± 0.6 µM | Km [6, 19]: 11 ± 1 µM | Km [7, 19]: 10 ± 5 µM | Km [8, 19]: 20 ± 10 µM | Km [9, 19]: 18 ± 2 µM

DfrB homolog A0A6J5PTB3 (enzyme)
stoichiometry N [10]: 4

Nc1nc2c(c(=O)[nH]1)N=C(CNc1ccc(C(=O)N[C@@H](CCC(=O)O)C(=O)O)cc1)CN2 [DHF]
Km [5, 20]: 6 ± 2 µM | Km [6, 20]: 130 ± 20 µM | Km [7, 20]: 44 ± 5 µM | Km [8, 20]: 36 ± 4 µM | Km [9, 20]: 7 ± 4 µM | Km [11]: 28 ± 3 µM

DfrB homolog A0A1M7UVF4 (natural protein)
stoichiometry N [12]: 2

DfrB homolog A0A1R3X8F5 (natural protein)
stoichiometry N [13]: 4

DfrB1 (type B dihydrofolate reductase 1) (enzyme)
stoichiometry N [14]: 4

DfrB-TS (BBD027md-00173_03685) (enzyme)
stoichiometry N [15]: 4 and 8

DfrB homolog A0A839U7A6 (enzyme)
stoichiometry N [16]: 4

DfrB homolog BBD029md-00326_13692 (enzyme)
stoichiometry N [17]: 4

DfrB homolog E2SFM2 (natural protein)
stoichiometry N [18]: 4
